Experimental data as given in publication PMC7108782, “Direct interaction of metastasis-inducing S100P protein with tubulin causes enhanced cell migration without changes in cell adhesion” (Biochemical Journal, 2020).
Values joined by “and” are separate entries in the source; they are usually repeats but may differ in a detail not shown here. Equal values may be shown once.

Experiments:
[1] = test system: α and β-tubulin subunits and half molecules; assay: Gel overlay assay; format: binding, human; conditions: 3 µg/ml S100P, 1 μM proteins, 4°C overnight
Procedure: The coding sequences for full length (human) α-tubulin and for N-terminal and C-terminal halves of α or β-tubulin were generated using PCR with specific primers shown in Supplementary Table S1 and sub-cloned into pET16(b) for expressing and purifying His-tagged full-length α-tubulin and His-tagged tubulin fragments in E. coli, as described previously. β-tubulin was purchased from Abcam.
Equal molar proteins (1 μM) were subjected to SDS PAGE on 10% (w/v) polyacrylamide gels. One gel was stained with Coomassie Blue to check equal loading and the other electroblotted onto PVDF membrane. Three µg/ml S100P in Gel Overlay Buffer were added to the membrane and the contents incubated at 4°C overnight. After extensive washing, the presence of bound S100P was probed with mouse anti-S100P as described for Western blotting.

[2] = test system: HeLa-A3 cells; assay: Cell adhesion assays, HeLa-A3; format: cell-based, human; conditions: HeLa A3, S100P induced vs uninduced, weak trypsin digestion, n = 3
Procedure: For kinetics of attachment either HeLa-A3 or COS-7 S10 cells were induced with 1 µg/ml doxycycline 48 h prior to experiment and 2 × 10^5 uninduced or induced cells in 1 ml were added to 24 well tissue culture dishes and allowed to adhere at 37°C. At the given time (30 min to 2 h) cells were washed 2× with PBS and detached with 250 µl 0.05% (w/v) trypsin in versene for 5 min at 37°C, neutralised in serum-containing media (SCM), counted and the percent of seeded cells recorded. For strength of adhesion, the same cells were seeded in 24 well tissue culture dishes so as to yield 80% confluence in 24 h. In all cases identical dishes were set up for test and control. After 24 h, wells were washed 2× and detached with 250 µl, 0.0125% (w/v) trypsin in versene for 5 min at 37°C. Wells were then carefully washed 2× to remove weak binders. Trypsin in versene (250 µl of 0.05% (w/v)) was then added to both test dish and control dish for 5 min to remove all cells from the well, neutralised with SCM and counted. The proportion of cells remaining after the weak digestion step was determined from the ratio of results from test and control plates. All assays were performed in triplicate.

[3] = test system: COS-7 S10 cells; assay: Immunofluorescence of MTOC and EB3 bundles; format: cell-based, monkey; conditions: COS-7 S10, S100P induced
Procedure: Immunofluorescent staining was carried out as previously described. COS-7 S10 and MCF-7 cells were induced for 48 h prior to plating at 25,000 cells/well onto either untreated or fibronectin-coated (2.5 µg/cm^2) glass coverslips in a 24-well plate. After a further 48 h, cells were washed once in Cytoskeleton Buffer (CB: 150 mM NaCl, 5 mM MgC1_2, 5 mM EGTA, 5 mM glucose, 10 mM 2-(N-morpholino) ethanesulfonic acid, pH 6.1) prior to fixing with 3.7% (w/v) paraformaldehyde in CB at 37°C for 20 min. Cells were permeabilised with 1% (v/v) Triton X-100 in CB for 2 min and blocked with 5% (v/v) goat serum in CB for 60 min before incubation with rabbit anti-EB3 (Abcam ab157217) and mouse anti-α-tubulin (Sigma T5168) (dilution between 1/400 and 1/500) in 1% (v/v) goat serum in CB for 60 min at room temperature. […] Quantification of the presence of EB3 clusters at the cell periphery or well-defined MTOC was performed by counting the number per cell in about 100 cells selected at random. […] For MTOC quantification, cells and MTOC were graded as shown in Figure 4C′ where organisation is defined as (1) not visible or poorly structured organisation; (2) visible but poorly formed; (3) visible and defined; and (4) well defined and extensive regions. […]

[4] = test system: tubulin polymerisation in HeLa-A19 cells; assay: In vivo tubulin polymerisation assay, HeLa / HeLa-A19; format: cell-based, human; conditions: HeLa-A19, 4 h after second release, 1 µg/ml doxycycline
Procedure: (§1) HeLa and S100P-inducible HeLa, COS-7 and S100P-inducible COS-7 cells were routinely cultured with or without doxycycline (1 µg/ml) and treated with 33 µM nocodazole for 24 h to synchronise the cells. Then the nocodazole was washed away (First release) and the synchronised cells were cultured in normal medium for 4 h to allow them to complete cell division. The nocodazole was then added again for 4 h to dissociate all the MTs. After this time, nocodazole was again removed by extensive washings (Second release) and tubulin was allowed to polymerise in the interphase of the cell cycle for different times. The cells were treated with buffer (10 mM Tris–HCl, 150 mM KCl, pH 7.4, 2% (v/v) Triton X-100) and the Triton-X100-insoluble tubulins (representing the newly formed MTs) were solubilised in Sample Buffer and quantified by Western blotting. To test the effect of tubulin-derived peptides, 20 µM T-DIC, T-DLV, T-IMN and tag-peptide alone (Supplementary Table S3) in 0.25% (v/v) DMSO as solvent, as well as the solvent control 0.25% (v/v) DMSO were added immediately after the second release in Sample Buffer and quantified at the different time points by Western blotting.

[5] = test system: tubulin polymerisation in COS-7 S10 cells; assay: In vivo tubulin polymerisation assay, COS-7 / COS-7 S10; format: cell-based, monkey
Procedure: as §1

[6] = test system: COS-7 cells; assay: Living colour expression: YFP-S100P with CFP-EB3; format: cell-based, monkey; conditions: high YFP-S100P, 24 h
Procedure: S100P fused to yellow fluorescent protein (YFP), and EB3 fused to cyan fluorescent protein (CFP) (EB3-CFP) expression plasmids, pYFP-S100P and pCFP-EB3 were constructed, respectively. COS-7 cells were transiently transfected with the two plasmids and images were recorded using a LSM 5 confocal microscope 24 h after transfection. CFP: excitation = 436 nm, emission = 480 nm; YFP: excitation = 500 nm, emission = 520 nm.

B1: S100P: recombinant or doxycycline-induced overexpressed S100P protein (protein)
chain: MTELETAMGMIIDVFSRYSGSEGSTQTLTKGELKVLMEKELPGFLQSGKDKDAVDKLLKDLDANGDAQVDFSEFIVFVAAITSACHKYFEKAGLK
binding of S100P to tubulin subunits and half molecules [1]: interacted with both α and β-tubulin subunits and with all four half molecules
fold decrease in strength of adhesion [2]: 1.58 fold
reduction in percentage of cells with EB3 bundles at periphery [3]: 52%
reduction in percentage of well-defined MTOCs per cell [3]: 31%
reduction in tubulin polymerisation on S100P induction [4]: 31% and ~30%
reduction in tubulin polymerisation on S100P induction ([5]; COS-7 S10, 4 h after second release, 1 µg/ml doxycycline): ~30%
near steady-state reduction in biochemical assembly of MTs ([5]; Figure 5E, COS-7 S10): 33%
distribution of peripheral MTs [6]: more dispersed distribution of cyan-labelled peripheral MTs
